Measured values as given in article doi:10.1101/2023.08.14.553235.

Target: GFP1–10 tagged with MCP, with nuclear localization sequences
Assay: P3 editing (protein-protein proximity sensor; genome editing read-out); HEK293T cells transfected with one of 12 designs of crRNA-MS2/BoxB-petracrRNA (upper 4-bp region of the repeat:anti-repeat duplex varied), PE4max and split-GFP or standard GFP (background); editing normalized to the eCTT control

Work on “GFP11 tagged with LambdaN, with nuclear localization sequences (peptide)” yielded a normalized editing efficiency (GAUA:UAUC guide RNA design) of 3.8%.
